Measured values published in patent US20140286963A1 (Genentech, published 2014).
Where a chain is given by its changes, count along the chain named.

Assays:
[1] = target: T1, human BACE1 extracellular domain, amino acids 1-457 of SEQ ID NO:49 (human, UniProt P56817 22-457, biotinylated in the phage sorting, phage ELISAs and the competition ELISA (sites not given)); experiment: phage competition ELISA IC50, against parent Fab5
T1 construct: also called human BACE1 ECD; hBACE1
Method: (§1) Single colonies (in XL1 blue cells) of the selected clones were picked up and grown in 1 ml 2YT broth supplemented with 50 μg/ml carbenicillin, 10 μg/ml tetracycline and M13KO7 at 37° C. for 2 h. Kanamycin (25 μg/ml) was added to the culture, which continued to grow for 6 h. The culture was transferred to 30 ml 2YT broth supplemented with 50 μg/ml carbenicillin and 25 μg/mlkanamycin and grown at 37° C. overnight. Phage were harvested and purified as previously described (Sidhu, S. S. et al. Methods Enzymol. 328: 333-363 (2000)). The purified Fab-displaying phage were serially diluted in PBT buffer and tested for binding to BACE1 immobilized on a plate. A fixed phage concentration that gives 80% of saturation signals was selected for the subsequent competition ELISA. […] The plate was then washed for 8 times and bound phage were detected by anti-M13-HRP.
(§2) To estimate the affinity of these 6 clones, phage competition ELISAs were performed, as described above, and IC₅₀ values were determined (FIG. 7). The IC₅₀ values were determined by fitting the data to a four-parameter logistic equation developed by Marquardt (Marquardt, D. W. SIAM J. Appl. Math. 11: 431-441 (1963)) using Kaleidagraph (Synergy Software) and are shown below in Table 2.

[2] = target: T1, human BACE1 extracellular domain, amino …; experiment: phage competition ELISA: Fab-displaying phage on plate-immobilized BACE1, serial dilutions of BACE1 in solution
Method: Single colonies (in XL1 blue cells) of the selected clones were picked up and grown in 1 ml 2YT broth supplemented with 50 μg/ml carbenicillin, 10 μg/ml tetracycline and M13KO7 at 37° C. for 2 h. Kanamycin (25 μg/ml) was added to the culture, which continued to grow for 6 h. The culture was transferred to 30 ml 2YT broth supplemented with 50 μg/ml carbenicillin and 25 μg/mlkanamycin and grown at 37° C. overnight. Phage were harvested and purified as previously described (Sidhu, S. S. et al. Methods Enzymol. 328: 333-363 (2000)). The purified Fab-displaying phage were serially diluted in PBT buffer and tested for binding to BACE1 immobilized on a plate. A fixed phage concentration that gives 80% of saturation signals was selected for the subsequent competition ELISA. The competition was conducted by incubating the fixed, sub-saturating Fab-displaying phage with serial dilutions of BACE1 for 1 h and then transferred to the BACE1-immobulized plate for 15 min to capture unbound phage. The plate was then washed for 8 times and bound phage were detected by anti-M13-HRP.
as §2

[3] = target: T1, human BACE1 extracellular domain, amino …; experiment: one-point phage competition ELISA: ratio of the ELISA signal of Fab-displaying phage on plate-immobilized BACE1 without / with 20 nM BACE1 in solution
Method: (§3) Screening of the libraries for affinity maturation of initially obtained antibodies was carried out similarly as described above. […] For rounds 2 and 3, 20 nM and 5 nM biotinylated BACE1 was incubated with amplified phage, respectively. Clones (96) from each of the two libraries were screened in a one-point competition ELISA, where 20 nM of BACE1 was used in solution to compete the phage particle from binding to plate-immobilized BACE1 as described below.
(§4) A plate immobilized with BACE1 was prepared by capturing 2 μg/ml biotinylated BACE1 for 15 min using a 384-well Maxisorp Immunoplate that was previously coated with 2 μg/ml of Neutravidin at 4° C. for overnight and blocked with Blocking Buffer. The culture supernatants from individual clones grown in a 96-well format were diluted 20-fold in PBT buffer and was incubated with or without 20 nM BACE1 at room temperature for 1 h. The mixture was transferred to the plate with immobilized BACE1 and incubated for 15 min. The plate was washed six times by PT buffer and the bound phage was detected by anti-M13-HRP as described above. The ratio between the ELISA signal from the well in the absence and the presence of BACE1 in solution indicates the affinity of the clone, where higher ratios indicate the higher affinities.

[4] = target: T1, human BACE1 extracellular domain, amino …; experiment: one-point competition phage ELISA, plate-immobilized BACE1, 20 nM BACE1 in solution
Method: as §3, §4

[5] = target: T1, human BACE1 extracellular domain, amino …; experiment: cell-based or functional assay
[6] = target: T1, human BACE1 extracellular domain, amino …; experiment: phage competition ELISA IC50; parent, reference for LC9, LC10 and LC6
[7] = target: T1, human BACE1 extracellular domain, amino …; experiment: SPR (BIAcore-3000), second unlabelled row under Human, IgG captured by anti-human Fc antibody, pH 7.0
Method: (§5) Association rates (kₒₙ) and dissociation rates (koff) were calculated using a simple one-to-one Langmuir binding model (BIAcore™ Evaluation Software version 3.2). The equilibrium dissociation constant (KD) was calculated as the ratio koff/kₒₙ.

Guinea pig BACE1 = target: T2, Guinea pig BACE1 (Guinea pig); experiment: SPR (BIAcore-3000), IgG captured by anti-human Fc antibody, pH 7.0
T2 construct: The method text names only the human and murine ECD; The guinea pig construct is not described

[8] = target: T1, human BACE1 extracellular domain, amino …; experiment: cell-based or functional assay; remark: listed apart in the source
[9] = target: BACE1 of primary mouse neurons (mouse, UniProt P56818 46-501); experiment: cell-based or functional assay
[10] = target: BACE1 of 293-HEK cells stably expressing wild-type human APP (UniProt P56817 46-501); experiment: cell-based or functional assay
[11] = target: T1, human BACE1 extracellular domain, amino …; experiment: SPR (BIAcore-3000), IgG captured by anti-human Fc antibody, BACE1 ECD injected, 25 C, pH 7.0
Method: as §5

[12] = target: T3, human BACE2 extracellular domain (human, UniProt Q9Y5Z0 21-473); experiment: SPR
T3 construct: extracellular domain; The extracellular domain is stated for the MCE enzyme assay; also called human recombinant BACE2 extracellular domain
T3 sequence (looked up): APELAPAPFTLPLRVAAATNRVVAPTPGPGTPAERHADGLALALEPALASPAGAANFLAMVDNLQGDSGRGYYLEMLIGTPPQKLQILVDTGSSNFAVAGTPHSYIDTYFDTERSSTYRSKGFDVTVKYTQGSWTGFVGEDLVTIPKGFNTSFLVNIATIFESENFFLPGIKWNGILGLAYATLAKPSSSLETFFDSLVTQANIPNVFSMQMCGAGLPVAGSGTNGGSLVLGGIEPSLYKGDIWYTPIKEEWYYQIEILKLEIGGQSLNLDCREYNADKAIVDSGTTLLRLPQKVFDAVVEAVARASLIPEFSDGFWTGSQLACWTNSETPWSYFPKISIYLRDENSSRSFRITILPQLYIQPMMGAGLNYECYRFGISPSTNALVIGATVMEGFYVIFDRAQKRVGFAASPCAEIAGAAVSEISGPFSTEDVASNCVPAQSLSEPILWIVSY

[13] = target: T1, human BACE1 extracellular domain, amino …; experiment: phage competition ELISA: Fab-displaying phage incubated with serial dilutions of BACE1 in solution, unbound phage captured on plate-immobilized BACE1, anti-M13-HRP, OD450
Method: as §1, §2

[14] = target: T1, human BACE1 extracellular domain, amino …; experiment: phage competition ELISA IC50, against parent Fab14

BACE1 of primary mouse neurons, sequence (P56818 46-501): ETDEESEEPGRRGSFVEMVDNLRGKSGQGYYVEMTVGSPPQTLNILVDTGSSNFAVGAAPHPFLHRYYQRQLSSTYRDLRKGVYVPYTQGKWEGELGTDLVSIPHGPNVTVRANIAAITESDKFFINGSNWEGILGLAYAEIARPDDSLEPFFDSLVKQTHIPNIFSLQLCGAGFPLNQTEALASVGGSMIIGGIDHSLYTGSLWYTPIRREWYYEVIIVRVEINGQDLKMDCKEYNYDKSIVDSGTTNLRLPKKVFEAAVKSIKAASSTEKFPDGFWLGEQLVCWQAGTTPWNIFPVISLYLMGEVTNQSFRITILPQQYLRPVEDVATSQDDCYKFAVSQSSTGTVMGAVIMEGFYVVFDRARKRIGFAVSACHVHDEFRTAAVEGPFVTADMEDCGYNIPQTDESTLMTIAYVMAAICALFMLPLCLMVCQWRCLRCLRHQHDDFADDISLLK
T1 sequence (P56817 22-457): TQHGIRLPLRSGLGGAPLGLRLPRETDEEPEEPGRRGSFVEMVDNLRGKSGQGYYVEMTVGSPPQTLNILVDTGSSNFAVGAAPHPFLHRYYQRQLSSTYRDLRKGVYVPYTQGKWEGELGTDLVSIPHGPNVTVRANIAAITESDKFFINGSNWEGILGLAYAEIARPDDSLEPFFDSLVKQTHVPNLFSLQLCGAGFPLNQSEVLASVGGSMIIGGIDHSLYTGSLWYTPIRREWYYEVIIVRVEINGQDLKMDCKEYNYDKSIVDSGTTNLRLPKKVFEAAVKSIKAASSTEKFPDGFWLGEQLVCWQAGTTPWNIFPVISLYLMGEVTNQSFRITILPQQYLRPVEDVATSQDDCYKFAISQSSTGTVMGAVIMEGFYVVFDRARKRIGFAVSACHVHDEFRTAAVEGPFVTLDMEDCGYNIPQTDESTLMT
BACE1 of 293-HEK cells stably expressing wild-type human APP, sequence (P56817 46-501): as the sequence (P56818 46-501) above, with S6P, I162V, I165L, T180S, A182V, V340I, A393L, H443Q counted along it

B1: Fab LC 4 (Fab, V domains shown)
VH: EVQLVESGGGLVQPGGSLRLSCAASGFNLSYSYIHWVRQAPGKGLEWVASIYSSYGSTYYADSVKGRFTISADTSKNTAYLQMNSLRAEDTAVYYCARSYHHSDKYYYAWSYALDYWGQGTLVTVSS
VL: DIQMTQSPSSLSASVGDRVTITCRASQSVSSAVAWYQQKPGKAPKLLIYSASSLYSGVPSRFSGSGSGTDFTLTISSLQPEDFATYYCQQYSYSLLTFGQGTKVEIK
[1]
  Fold affinity improvement: 45 fold
[2]
  IC50: 0.46 nM
[3]
  Competition ELISA Ratio: 6.3
[4]
  ratio of ELISA signal in the absence to the presence of BACE1 in solution: > 4 ratio
[5]
  IC50 (nM), HTRF enzyme activity assay: 480 nM

B2: Fab 12 (Fab, V domains shown)
VH: EVQLVESGGGLVQPGGSLRLSCAASGFNFYYSSIHWVRQAPGKGLEWVASISPYSGYTSYADSVKGRFTISADTSKNTAYLQMNSLRAEDTAVYYCARQPTHYYYYAKGYKAMDYWGQGTLVTVSS
VL: B1 VL with L95P, L96F
[2]
  IC50: 45.3 nM
[6]
  Fold affinity improvement: 1 fold

B3: YW412.8.31 anti-BACE1 human IgG (antibody, V domains shown)
VH: EVQLVESGGGLVQPGGSLRLSCAASGFTFLGYGIHWVRQAPGKGLEWVGWISPAGGSTDYADSVKGRFTISADTSKNTAYLQMNSLRAEDTAVYYCARGPFSPWVMDYWGQGTLVTVSS
VL: B1 VL with S28D, S31T, S53F, Y91F, S92P, Y93T, S94Y, L96P
notes: also called YW412.8.31 antibody
[7]
  Kd: 1.32 nM
  koff: 0.000139 s⁻¹
  kon: 105000 M⁻¹ s⁻¹
Guinea pig BACE1
  Kd: 2.6 nM
  koff: 0.00027 s⁻¹
  kon: 100000 M⁻¹ s⁻¹
[8]
  IC50, HTRF long peptide assay: 1.7 nM
  IC50, microfluidic capillary electrophoresis assay: 0.08 nM
  IC50, short FRET peptide assay: 17 nM
[9]
  IC50, Aβ40 production in DRG neurons: 8.4 nM
  IC50, Aβ40 production in cortical and hippocampal neurons: 2.3 to 2.6 nM
[10]
  IC50, Aβ1-40 production in APP-expressing 293 cells: 17 nM
[11]
  Kd: 2.9 nM
  koff: 0.00031 s⁻¹
  kon: 110000 M⁻¹ s⁻¹
[12]
  binding result: no binding

B4: Fab LC 6 (Fab, V domains shown)
VH: B2 VH
VL: B1 VL with Y49S, S50W, S53W, L95P, L96F
[13]
  IC50 (read off the curve): ~0.3 nM
[8]
  improvement in inhibition activity against parent Fab 12, HTRF enzyme activity assay: ~20 fold
[5]
  IC50 (nM), HTRF enzyme activity assay: 160 nM

B5: Fab LC10 (Fab, V domains shown)
VH: B2 VH
VL: B1 VL with Y49W, S50W, L95P, L96F
[8]
  improvement in inhibition activity against parent Fab 12, HTRF enzyme activity assay: ~20 fold

B6: Fab LC 9 (Fab, V domains shown)
VH: B2 VH
VL: B1 VL with Y49W, S50Y, S53W, L95P, L96F
[8]
  improvement in inhibition activity against parent Fab 12, HTRF enzyme activity assay: ~20 fold
[5]
  IC50 (nM), HTRF enzyme activity assay: 140 nM

B7: Fab LC 40 (Fab, V domains shown)
VH: EVQLVESGGGLVQPGGSLRLSCAASGFNVSSSSMHWVRQAPGKGLEWVASIYPYSSSTSYADSVKGRFTISADTSKNTAYLQMNSLRAEDTAVYYCARYSYYSYGIDYWGQGTLVTVSS
VL: DIQMTQSPSSLSASVGDRVTITCRASQYSYSYSVAWYQQKPGKAPKLLISYASYLYSGVPSRFSGSGSGTDFTLTISSLQPEDFATYYCQQYSYSYSPITFGQGTKVEIK
[2]
  IC50: 4.7 nM
[3]
  Competition ELISA Ratio: 3
[4]
  ratio of ELISA signal in the absence to the presence of BACE1 in solution: > 3 ratio
[14]
  Fold affinity improvement: 3 fold
